From PMC10180074, “Improved Stability and Catalytic Efficiency of ω-Transaminase in Aqueous Mixture of Deep Eutectic Solvents” (Molecules, 2023)

Experiments:
[1] = tested on: CC(=O)C(=O)O; assay: Michaelis-Menten fit; acetophenone by HPLC; format: biochemical, Aspergillus terreus; conditions: phosphate buffer, no DES, 1-(R)-PEA co-substrate, PLP, pH 8.0, 40 °C
Text: (§1) Michaelis-Menten fit; acetophenone by HPLC on ω-TA variant from Aspergillus terreus (E133A)

[2] = tested on: C[C@@H](N)c1ccccc1; assay: Michaelis-Menten fit; acetophenone by HPLC; format: biochemical, Aspergillus terreus; conditions: phosphate buffer, no DES, pyruvate constant, PLP, pH 8.0, 40 °C
Text: as §1

With “ω-TA variant from Aspergillus terreus (E133A) (Aspergillus terreus NIH2624; E133A)” as the substance, how does the Km [1] read?
Its Km is 640 ± 70 µM.

What about the kcat [1] of the same substance?
The kcat was 0.54967 ± 0.0005 s⁻¹.

What about the kcat/Km [1] of the same substance?
The kcat/Km was 853 M⁻¹ s⁻¹.

And the Km [2]?
Its Km is 650 ± 70 µM.

And the kcat [2]?
The kcat was 0.8027 ± 0.000833 s⁻¹.

What about the kcat/Km [2] of the same substance?
Its kcat/Km is 1230 M⁻¹ s⁻¹.
